Laboratory results taken from PMC5454392, “Selective BET bromodomain inhibition as an antifungal therapeutic strategy” (Nature Communications, 2017).
Where two headings read alike, the source gives them in different places. Square brackets hold non-standard residues; d marks the D form. Ends that are not written are not given here. pT = C[C@@H](OP(=O)(O)O)[C@H](N)C(=O)O; Me2a = not defined here

Key:
[1] = biological target: T1, CaBdf1 BD1 (Candida albicans, UniProt Q5A4W8); type: binding; conditions: wild-type BD1; for CaBdf1 BD1 Normalized (0 to 100%) WT: normalized array signal; for CaBdf1 BD1 Raw data WT: peptide array signal;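 on CaBdf1 BD1 Normalized (0 to 100%) WT: normalized to spotted c-myc peptide positive control signal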
T1 construct: made in house; host or cells: E. coli BL21(DE3)
T1 sequence (Q5A4W8 whole entry, looked up): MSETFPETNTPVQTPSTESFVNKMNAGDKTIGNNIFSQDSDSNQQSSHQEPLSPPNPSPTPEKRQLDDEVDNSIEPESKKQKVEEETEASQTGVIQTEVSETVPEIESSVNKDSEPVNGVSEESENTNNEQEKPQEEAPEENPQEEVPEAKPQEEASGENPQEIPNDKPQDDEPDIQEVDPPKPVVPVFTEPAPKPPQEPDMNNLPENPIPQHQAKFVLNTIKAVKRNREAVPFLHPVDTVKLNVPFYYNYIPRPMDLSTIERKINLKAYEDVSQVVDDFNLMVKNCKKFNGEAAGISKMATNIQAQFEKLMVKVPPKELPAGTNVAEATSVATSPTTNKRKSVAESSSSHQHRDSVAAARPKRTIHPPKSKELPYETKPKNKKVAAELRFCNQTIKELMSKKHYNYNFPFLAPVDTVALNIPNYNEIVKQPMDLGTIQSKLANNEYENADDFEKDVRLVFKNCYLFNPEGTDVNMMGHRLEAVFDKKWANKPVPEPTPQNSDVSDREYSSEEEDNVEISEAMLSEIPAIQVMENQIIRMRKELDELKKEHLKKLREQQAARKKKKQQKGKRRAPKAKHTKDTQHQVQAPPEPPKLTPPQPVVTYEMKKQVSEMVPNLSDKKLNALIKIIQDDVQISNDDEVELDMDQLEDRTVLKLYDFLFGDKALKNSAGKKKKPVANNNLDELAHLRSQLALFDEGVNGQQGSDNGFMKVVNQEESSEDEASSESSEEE
Description: (§1) In short, arrays were blocked and incubated with 1 μM of purified CaBdf1 BD1 or BD2. Arrays were incubated with recombinant BDs for 2 h at 4 °C in binding buffer (Tris-HCl 50 mM pH 7.4, NP-40 0.1%, NaCl 150 mM, glycerol 10%). […] Assays were performed in duplicate.

[2] = biological target: T2, CaBdf1 BD2 (Candida albicans, UniProt Q5A4W8); type: binding; conditions: wild-type BD2; for CaBdf1 BD2 Normalized (0 to 100%) WT: normalized array signal; for CaBdf1 BD2 Raw data WT: peptide array signal;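 on CaBdf1 BD2 Normalized (0 to 100%) WT: normalized to spotted c-myc peptide positive control signal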
T2 construct: made in house; host or cells: E. coli BL21(DE3)
T2 sequence (Q5A4W8 whole entry, looked up): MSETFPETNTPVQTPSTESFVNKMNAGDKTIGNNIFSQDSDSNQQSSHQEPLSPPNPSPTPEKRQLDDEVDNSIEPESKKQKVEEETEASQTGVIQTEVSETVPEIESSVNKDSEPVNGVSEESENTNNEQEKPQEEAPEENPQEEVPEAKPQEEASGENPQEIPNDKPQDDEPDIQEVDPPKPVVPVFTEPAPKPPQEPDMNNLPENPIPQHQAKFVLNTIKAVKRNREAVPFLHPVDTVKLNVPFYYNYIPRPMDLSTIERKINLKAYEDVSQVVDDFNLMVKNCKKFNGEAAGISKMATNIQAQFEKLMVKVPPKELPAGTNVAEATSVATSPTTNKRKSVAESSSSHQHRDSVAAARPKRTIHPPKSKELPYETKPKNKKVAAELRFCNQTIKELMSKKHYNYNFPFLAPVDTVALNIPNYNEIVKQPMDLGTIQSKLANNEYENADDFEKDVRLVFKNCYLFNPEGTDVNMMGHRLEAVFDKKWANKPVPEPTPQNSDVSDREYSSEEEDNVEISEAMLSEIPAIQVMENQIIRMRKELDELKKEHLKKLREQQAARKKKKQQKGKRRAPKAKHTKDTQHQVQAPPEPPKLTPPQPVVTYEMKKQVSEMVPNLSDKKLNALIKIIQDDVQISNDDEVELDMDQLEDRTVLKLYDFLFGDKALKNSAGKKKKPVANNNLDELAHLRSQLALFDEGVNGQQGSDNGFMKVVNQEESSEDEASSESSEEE
Description: as §1

[3] = biological target: T3, CaBdf1 BD1 Y248F (Candida albicans, UniProt Q5A4W8, Y248F); assay: Histone peptide microarray binding, YF mutant;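 on CaBdf1 BD1 Normalized (0 to 100%) YF mutant: normalized to spotted c-myc peptide positive control signal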; design: species or system C. albicans; conditions: YF mutant BD1; for CaBdf1 BD1 Normalized (0 to 100%) YF mutant: normalized array signal; for CaBdf1 BD1 Raw data YF mutant: peptide array signal
T3 construct: made in house; host or cells: E. coli BL21(DE3), inferred from the wild-type GST construct
T3 sequence (Q5A4W8 193-327 Y248F): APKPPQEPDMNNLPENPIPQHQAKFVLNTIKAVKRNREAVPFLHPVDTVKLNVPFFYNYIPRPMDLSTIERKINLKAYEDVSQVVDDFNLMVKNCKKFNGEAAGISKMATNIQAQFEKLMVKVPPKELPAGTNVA
Description: (§2) In short, arrays were blocked and incubated with 1 μM of purified CaBdf1 BD1 or BD2. Arrays were incubated with recombinant BDs for 2 h at 4 °C in binding buffer (Tris-HCl 50 mM pH 7.4, NP-40 0.1%, NaCl 150 mM, glycerol 10%). […] Assays were performed in duplicate. Images were acquired on a Bio-Rad ChemiDoc XRS Imaging machine and data were quantified using the array analyser software provided by Active Motif.

[4] = biological target: T4, CaBdf1 BD2 Y425F (Candida albicans, UniProt Q5A4W8, Y425F); assay: Histone peptide microarray binding, YF mutant;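 on CaBdf1 BD2 Normalized (0 to 100%) YF mutant: normalized to spotted c-myc peptide positive control signal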; design: species or system C. albicans; conditions: YF mutant BD2; for CaBdf1 BD2 Normalized (0 to 100%) YF mutant: normalized array signal; for CaBdf1 BD2 Raw data YF mutant: peptide array signal
T4 construct: made in house; host or cells: E. coli BL21(DE3), inferred from the wild-type GST construct
T4 sequence (Q5A4W8 361-501 Y425F): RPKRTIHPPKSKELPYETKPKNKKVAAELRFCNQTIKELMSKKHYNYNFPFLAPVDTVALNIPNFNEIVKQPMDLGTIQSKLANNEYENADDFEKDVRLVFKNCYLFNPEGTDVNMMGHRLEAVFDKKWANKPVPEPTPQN
Description: as §2

[5] = biological target: T5, CaBdf1 BD2 (GST-tagged, wild-type) (Candida albicans (strain SC5314 / ATCC …, UniProt Q5A4W8)); assay: histone peptide array (Active Motif MODified), 1 uM GST-tagged bromodomain, anti-GST detection, normalized mean intensity
T5 chain: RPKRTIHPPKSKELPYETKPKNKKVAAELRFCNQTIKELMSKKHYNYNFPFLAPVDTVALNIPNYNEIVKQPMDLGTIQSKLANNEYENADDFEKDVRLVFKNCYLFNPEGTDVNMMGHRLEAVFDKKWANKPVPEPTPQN

[6] = biological target: T6, CaBdf1 BD1 (GST-tagged, wild-type) (Candida albicans (strain SC5314 / ATCC …, UniProt Q5A4W8)); assay: as above
T6 chain: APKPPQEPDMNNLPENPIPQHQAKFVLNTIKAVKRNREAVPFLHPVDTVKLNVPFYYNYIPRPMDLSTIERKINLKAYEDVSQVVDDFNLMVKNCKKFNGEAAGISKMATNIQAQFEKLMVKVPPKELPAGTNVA

Molecule	CaBdf1 BD1 Normalized (0 to 100%) WT [1] [%]	CaBdf1 BD1 Raw data WT ([1]; first of two raw-data columns)	CaBdf1 BD1 Raw data WT [1]	CaBdf1 BD2 Normalized (0 to 100%) WT [2] [%]	CaBdf1 BD2 Raw data WT ([2]; first of two raw-data columns)	CaBdf1 BD2 Raw data WT [2]	CaBdf1 BD1 Normalized (0 to 100%) YF mutant [3] [%]	CaBdf1 BD1 Raw data YF mutant ([3]; first of two raw-data columns)	CaBdf1 BD1 Raw data YF mutant [3]	CaBdf1 BD2 Normalized (0 to 100%) YF mutant [4] [%]	CaBdf1 BD2 Raw data YF mutant ([4]; first of two raw-data columns)	CaBdf1 BD2 Raw data YF mutant [4]	binding score [5]	binding score [6]
A Rme2a T Kme2 Q T A R Kme2 S T G G K A P R K Q	0.399	0.00481	0.00481	0.222	0.0151	0.0006863	0.727	0.007202	0.002401	0.0977	0.0009709	0.002427		
A Rme2a T Kme2 Q T A Rme2a K S T G G K A P R K Q	0.508	0.007483	0.003741	0.444		0.01098	0.727	0.007202	0.003086	0.293		0.002427		
A Rme2a T Kme3 Q T A R Kac S T G G K A P R K Q	3.44	0.01924	0.03528	0.518	0.006177	0.0151	0.554	0.005487	0.004801	0.244	0.002427	0.002427		
A Rme2a T Kme3 Q T A R Kme2 S T G G K A P R K Q	0.145	0.002672	0.003207	0.296	0.01579	0.001373	0.554	0.005487	0.006859	0.244	0.002427	0.003398		
A Rme2a T Kme3 Q T A Rme2a K S T G G K A P R K Q	0.363	0.004276	0.00481	0.444	0.01098		0.658	0.006516	0.004801	0.293		0.002427		
ARTKQTARKSTGGKAPRKQ (A R T K Q T A R K S pT G G K A P R K Q)													0.00037	0.00326
ARTKQTARKSTGGKAPRKQ (A Rme2s T Kme3 Q T A R K S T G G K A P R K Q)													0	0.00363
AR(Me2a)[pT]K(Me)QTARKSTGGKAPRKQ (reading uncertain)													0.00037	0.00471
AR(Me2s)TK(Me3)QTAR(Me2a)K(Ac)STGGKAPRKQ (reading uncertain)													0.0037	0.0406
